Reference: the nanobody polyreactivity screen of Harvey et al. (2022)

Assay: yeast display, Sf9 membrane polyspecificity reagent, FACS + sequencing; frameworks hold sequencing errors
Outline: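 Galactose-induced (36–48 hours) yeast carrying a synthetic nanobody display library were exposed to 10% biotinylated, detergent-solubilized Sf9 membrane reagent at 4 °C for 1 hour. FACS followed streptavidin microbead enrichment, using low and high (top ~1%) gates for expression (anti-HA) and reagent binding (streptavidin). Colony PCR, MiSeq 2 × 250 sequencing and CDR-length filtering followed. Labels for polyreactivity reflect the gate of origin.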

Sequence | polyreactivity (PSR sort gate)
QVQLQESGGGLVQAGGSLRLSCAASGYIILQYAMGWYRPAPGKERELVASIARGTSTYYADSVKGRFTISRDNAKNTVYLQMNSLKPEDTAVYYCAVIYSWGLWHDYWGQGTQVTVSS | high polyreactivity
QVQLVESGGGLVQAGGSLRLSCAASGFIFLRYGMGWYRPAPGKERELVASIDSTGGSTYADSVKGRFTISRDNAKNTVYLQMNSLKPEDTAVDYCAAAYYIVSERDYWGQGTQVTVSS | low polyreactivity
QVQLVESGGGIVQAGGSLRLSCAASGSNLQYKAMGWYRQAPGKERELVADITSSGGSTYYADSVKGRFTISRDNAKNTVYLQMNSLKPEDTAVYYFAKDTHWAYYWGQGTQVTVSS | low polyreactivity
QVQLVESGGGLVQAGGSLRLSCAASGSTFGYNGMGWYRQAPGKVRELVAAISGGARTYADSVKGRFTISRDNAKNTVYLQMNSLKPEDTAVYYCAADSPVSVTADDGYWGQGTQVTVSS | low polyreactivity
QVQLVESGGGLVQAGGSLRLSCAASGSTFGTYAMGWYRQAPGKERELVAAISRRGGSTYYADSVKGRFTISRDNAKNTVYLQMNSLKPEDTAVDYCAARNFHPDDNYWGQGTQVTVSS | high polyreactivity
QVQLVESGGGLVQAGGSLRLSCAASGLTFRSYTMGWYRQAPGKERELVAAISSGGSTYYADSVKGRFTISRDNAKNTVYLQMNSLKPEDTAVYYCAAPRGHGKYYSWGQGTQVTVSS | high polyreactivity
QVQLVEYVELLVQAVGILSLSCAASGLTIYYYIMGWYLHAPRKEREFLAAISNSGCRPYYADSVNGRFTISRDNAKNTDYLQMNSLIPEDTPVYYCAAQSRYGGKFLYWGQGTQVTVSS | high polyreactivity
QVQLVESGGGIVQAGGSLRLSCAASGSIDWNAKGWYRQAPGKEREFVAAISSSGGRTSYADSVKGRFTISRDNAKNTVYLEMNSLKPEDTAVYYGAAAGSYDGDRYYYWGQGTQVTVSS | high polyreactivity
QVQLVESGGGVVQAGGSLRLSCAATGSIFISYDTGLYRQAPGKESELVAAITWSGDSTYYADSVKARFTISRDNAKNSVYLQMNSLKPEDTAVYYCAADWYFRNQRGYYWGQGTQVTVSS | low polyreactivity
QVHLQESGGGQVQAGGSLRLSCAASGSISYASGMGWYRQAPGTEREFVASIDPGAITNYADSVKGRFTISHDNAKNTVYLQMNSLKPEYTAVYYCAARVSTTDSHGYWGQGTQVTVSS | high polyreactivity
QVQLVESGGGLVQAGGSLRLSCAASGRTFNGYAMGWYRQAPGKERELVASITLRGGSTYYADSVKGRFTISRDNAKNTVYLQMNSLKPEDTAVYYCAVGKFVRYPGRWRYRYDYWGQGTQVTVSS | high polyreactivity
QVQLVESGGGLVQAGGSLRLSCAASGFTFFRNAMGWYRQAPGKERELVAAISGSGGSTYYADSVKGRFTISRDNATNTVYLQMNSLIPVDTAVYYCATYSYPAKVREAYNYWGQGTQVTVSS | low polyreactivity
QVQLVESGGGLVQAGGSLRLSCAASGITVLKYVMGWYRQAPGKEREFVAAITARGGTTYYADSVKGRFTISRDNAKNTVYLQMNSLKQEDTAVYYCAARSYYSGLAYYYWGQGTQVTVSS | high polyreactivity
QVQLEESGGGLVQAGGSLRLSCAASGSIFTDYAMGSYGQAPGKERELVAAITSGGSTNYADSVKGRFTISRDNAKNTVYLQMNSLKPEDTAVYYCNADDYWLDSWSSDLWYDYWGQGTQVTVSS | low polyreactivity
QVQLVESGGGLVQAGGSLRLSCAASGSIFVGYAMGWYRQAPGKERELVAAINSSGDRTFYADSVKGRFTISRDNAKNTVYLQMNSLKREDTAVYYCNRVYVRAGVSVAYNYWGQGTQVTVSS | high polyreactivity
QVQLVESGGGLVQAGGSLRLSCAASGSIFVGYAMGWYRQAPGKERELVAAIRWSGGSTYYADSVKGRFTISRDNAKNTVYLQMNSLKPEDTAVYYCAKYFPAGYYYWGQGTQVTVSS | low polyreactivity
QVQLVESGGGLVQAGGSLRLSCAASGYIFSGYAMGWYRQAPGKERELVAAISSSGGRTYYADSVKGRFTISRDNAKNTVYLQMNSLKPEDTAVYYCAARIRTVAHVDYDYWGQGTQVTVSS | high polyreactivity
